“Also recorded” adds a separate entry of the source.
Experiments:
PfHsp70-z = target: T1, PfHsp70-z (Plasmodium falciparum, UniProt Q8IC01); experiment: SPR self-association, immobilised ligand PfHsp70-z; assay type: binding
T1 sequence (Q8IC01 1-873): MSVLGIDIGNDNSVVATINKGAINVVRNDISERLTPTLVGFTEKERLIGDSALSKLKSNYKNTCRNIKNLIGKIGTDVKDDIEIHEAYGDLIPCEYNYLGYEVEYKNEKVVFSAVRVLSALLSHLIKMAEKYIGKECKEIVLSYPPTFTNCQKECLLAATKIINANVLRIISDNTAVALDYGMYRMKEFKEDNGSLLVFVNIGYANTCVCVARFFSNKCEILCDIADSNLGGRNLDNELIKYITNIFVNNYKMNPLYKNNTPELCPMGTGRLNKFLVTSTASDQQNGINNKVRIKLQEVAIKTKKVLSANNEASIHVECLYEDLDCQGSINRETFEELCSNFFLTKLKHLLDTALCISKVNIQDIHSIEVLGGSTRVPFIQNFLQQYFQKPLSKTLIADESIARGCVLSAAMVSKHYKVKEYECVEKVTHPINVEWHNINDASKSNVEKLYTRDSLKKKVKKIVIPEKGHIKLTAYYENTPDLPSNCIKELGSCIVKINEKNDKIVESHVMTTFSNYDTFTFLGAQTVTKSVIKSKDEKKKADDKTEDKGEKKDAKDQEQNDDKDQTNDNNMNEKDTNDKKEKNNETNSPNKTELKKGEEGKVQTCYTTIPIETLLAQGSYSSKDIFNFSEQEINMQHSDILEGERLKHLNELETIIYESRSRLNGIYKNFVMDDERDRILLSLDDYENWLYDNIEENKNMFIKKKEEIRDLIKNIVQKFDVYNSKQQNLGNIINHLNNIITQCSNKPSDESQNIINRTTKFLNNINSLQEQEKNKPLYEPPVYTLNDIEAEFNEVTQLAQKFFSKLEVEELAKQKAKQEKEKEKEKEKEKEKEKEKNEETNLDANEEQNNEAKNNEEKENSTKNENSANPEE

PfHsp70-1 [1] = target: T2, PfHsp70-1 (Plasmodium falciparum, UniProt Q8IB24); experiment: SPR heterologous association with PfHsp70-1; assay type: binding
T2 sequence (Q8IB24 1-677): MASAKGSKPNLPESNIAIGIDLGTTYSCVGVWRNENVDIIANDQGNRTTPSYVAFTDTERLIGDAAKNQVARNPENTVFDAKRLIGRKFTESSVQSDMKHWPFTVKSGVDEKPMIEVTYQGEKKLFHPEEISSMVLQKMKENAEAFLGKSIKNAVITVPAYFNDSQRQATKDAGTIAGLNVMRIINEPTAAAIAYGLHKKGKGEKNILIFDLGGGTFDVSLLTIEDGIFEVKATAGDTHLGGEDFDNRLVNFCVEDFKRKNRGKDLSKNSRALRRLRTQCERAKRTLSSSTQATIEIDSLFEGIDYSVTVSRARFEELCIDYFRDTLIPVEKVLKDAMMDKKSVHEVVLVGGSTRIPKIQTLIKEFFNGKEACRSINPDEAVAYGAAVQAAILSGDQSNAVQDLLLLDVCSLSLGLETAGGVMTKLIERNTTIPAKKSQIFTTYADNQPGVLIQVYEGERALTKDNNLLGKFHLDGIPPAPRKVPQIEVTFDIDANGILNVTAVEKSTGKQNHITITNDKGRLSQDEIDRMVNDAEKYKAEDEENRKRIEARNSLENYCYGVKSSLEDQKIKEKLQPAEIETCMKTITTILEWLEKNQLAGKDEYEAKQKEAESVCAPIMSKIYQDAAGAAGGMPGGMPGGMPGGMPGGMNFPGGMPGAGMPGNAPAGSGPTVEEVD

PfHsp70-1 [2] = target: T2, PfHsp70-1; conditions: previous study; ref [3]; cited from earlier work

B1: PfHsp70-z: essential cytosol localised Hsp110 chaperone of Plasmodium falciparum, recombinant (protein)
chain: T1 sequence (Q8IC01 1-873)
nucleotide regulation of self-association (PfHsp70-z; NN vs ADP/ATP): its self-association was nucleotide independent; also recorded: its oligomerisation was not regulated by nucleotide
KD self-association (PfHsp70-z; apo state): 1.39 nM
affinity in apo- vs ADP-state (PfHsp70-1 [1]; apo- and ADP-states): occurred within the same order of affinity
effect of nucleotide on heterologous association (PfHsp70-1 [1]; relative to apo-state): ATP enhanced the direct association of the two chaperones
effect of ATP on association (PfHsp70-1 [2]): ATP substantially enhances their association

— article PMC11066147 (Heliyon, 2024)
